Data from patent publication EP2420255A2 (Ecole Polytechnique Federale De Lausanne (EPFL), dated 2012).
Numbered stars: 1 amine (or outer) side, 2 acyl side, 3 side chain; on linkers, the order of the positions; unused ones are H or OH. Bridge positions count the residues as written; N and C are the ends. TBMB = c1c(C[*:1])cc(C[*:3])cc1C[*:2]

Assays:
[1] = molecular target: T1, human urokinase-type plasminogen activator (UPA-LMW, from human urine, 33 kDa) (human, UniProt P00749 156-431); assay: enzyme inhibition of human uPA, residual activity
[2] = molecular target: T2, human factor XIa (IHFXI, from human plasma, 160 kDa) (human, UniProt P03951 19-625); assay: cell-based or functional assay
T2 sequence (P03951 19-625 limits assumed): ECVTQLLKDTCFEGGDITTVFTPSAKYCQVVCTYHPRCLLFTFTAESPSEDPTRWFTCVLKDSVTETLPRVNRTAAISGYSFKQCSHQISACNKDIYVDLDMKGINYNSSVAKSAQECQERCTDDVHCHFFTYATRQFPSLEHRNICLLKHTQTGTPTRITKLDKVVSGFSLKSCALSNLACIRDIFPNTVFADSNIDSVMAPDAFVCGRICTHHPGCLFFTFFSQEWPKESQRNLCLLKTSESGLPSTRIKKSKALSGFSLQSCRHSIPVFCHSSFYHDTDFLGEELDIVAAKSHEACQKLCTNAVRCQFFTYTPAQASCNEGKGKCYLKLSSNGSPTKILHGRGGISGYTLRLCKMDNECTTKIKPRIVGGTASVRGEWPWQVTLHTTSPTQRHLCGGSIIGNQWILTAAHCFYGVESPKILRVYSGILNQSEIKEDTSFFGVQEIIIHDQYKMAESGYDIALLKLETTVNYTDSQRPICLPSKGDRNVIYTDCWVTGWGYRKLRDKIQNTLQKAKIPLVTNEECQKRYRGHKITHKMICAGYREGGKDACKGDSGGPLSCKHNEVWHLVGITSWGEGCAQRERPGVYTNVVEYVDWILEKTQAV

[3] = molecular target: T3, human thrombin (IHT, from human plasma, 37 kDa) (human, UniProt P00734 328-622); assay: cell-based or functional assay
[4] = molecular target: T4, mouse tPA (MTPA, recombinantly produced in insect cells, 70 kDa) (mouse, UniProt P11214 33-559, limits assumed); assay: cell-based or functional assay
T4 sequence (P11214 33-559 limits assumed): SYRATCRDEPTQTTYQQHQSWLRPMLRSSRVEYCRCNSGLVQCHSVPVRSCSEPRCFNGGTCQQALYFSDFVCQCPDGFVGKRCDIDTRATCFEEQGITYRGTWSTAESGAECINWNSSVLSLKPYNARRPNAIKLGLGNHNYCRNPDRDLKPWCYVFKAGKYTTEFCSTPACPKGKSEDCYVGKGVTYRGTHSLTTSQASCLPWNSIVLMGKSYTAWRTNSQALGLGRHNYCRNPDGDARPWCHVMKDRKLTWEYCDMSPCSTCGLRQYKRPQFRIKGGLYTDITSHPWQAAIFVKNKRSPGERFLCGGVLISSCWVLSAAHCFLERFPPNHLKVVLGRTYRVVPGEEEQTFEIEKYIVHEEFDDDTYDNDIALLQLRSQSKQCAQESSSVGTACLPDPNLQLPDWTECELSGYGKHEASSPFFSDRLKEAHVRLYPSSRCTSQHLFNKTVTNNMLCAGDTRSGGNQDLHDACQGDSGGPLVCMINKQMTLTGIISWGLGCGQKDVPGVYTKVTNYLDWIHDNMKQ

[5] = molecular target: T1, human urokinase-type plasminogen …; assay: cell-based or functional assay
[6] = molecular target: T5, human trypsin (HTRYP, from human pancreas, 25 kDa) (human, UniProt P07477 24-247); assay: cell-based or functional assay
[7] = molecular target: T6, human plasmin (HPLM, from human plasma, 85 kDa) (human, UniProt P00747 97-810, limits assumed); assay: cell-based or functional assay
T6 sequence (P00747 97-810 limits assumed): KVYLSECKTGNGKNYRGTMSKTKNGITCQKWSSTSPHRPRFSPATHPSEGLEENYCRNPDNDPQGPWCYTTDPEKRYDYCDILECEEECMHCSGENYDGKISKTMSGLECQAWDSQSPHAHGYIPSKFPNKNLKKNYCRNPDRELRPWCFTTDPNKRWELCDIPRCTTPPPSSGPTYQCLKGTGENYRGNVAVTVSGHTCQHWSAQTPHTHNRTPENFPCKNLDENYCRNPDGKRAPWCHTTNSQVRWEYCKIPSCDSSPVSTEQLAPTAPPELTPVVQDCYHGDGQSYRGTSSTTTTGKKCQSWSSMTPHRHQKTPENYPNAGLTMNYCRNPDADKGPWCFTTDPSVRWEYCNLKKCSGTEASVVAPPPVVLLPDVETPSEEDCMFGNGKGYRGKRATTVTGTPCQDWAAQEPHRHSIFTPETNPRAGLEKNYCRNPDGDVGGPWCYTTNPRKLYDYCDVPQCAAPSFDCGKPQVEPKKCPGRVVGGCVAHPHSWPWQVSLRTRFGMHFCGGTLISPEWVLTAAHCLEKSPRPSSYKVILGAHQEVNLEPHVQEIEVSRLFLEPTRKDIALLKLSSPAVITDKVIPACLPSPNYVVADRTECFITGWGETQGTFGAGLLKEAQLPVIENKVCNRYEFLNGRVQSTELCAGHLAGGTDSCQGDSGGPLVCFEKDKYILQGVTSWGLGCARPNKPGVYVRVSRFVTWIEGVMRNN

[8] = molecular target: T7, human plasma kallikrein (IHPKA, from human plasma, 86 kDa) (human, UniProt P03952 20-638); assay: cell-based or functional assay
T7 sequence (P03952 20-638 limits assumed): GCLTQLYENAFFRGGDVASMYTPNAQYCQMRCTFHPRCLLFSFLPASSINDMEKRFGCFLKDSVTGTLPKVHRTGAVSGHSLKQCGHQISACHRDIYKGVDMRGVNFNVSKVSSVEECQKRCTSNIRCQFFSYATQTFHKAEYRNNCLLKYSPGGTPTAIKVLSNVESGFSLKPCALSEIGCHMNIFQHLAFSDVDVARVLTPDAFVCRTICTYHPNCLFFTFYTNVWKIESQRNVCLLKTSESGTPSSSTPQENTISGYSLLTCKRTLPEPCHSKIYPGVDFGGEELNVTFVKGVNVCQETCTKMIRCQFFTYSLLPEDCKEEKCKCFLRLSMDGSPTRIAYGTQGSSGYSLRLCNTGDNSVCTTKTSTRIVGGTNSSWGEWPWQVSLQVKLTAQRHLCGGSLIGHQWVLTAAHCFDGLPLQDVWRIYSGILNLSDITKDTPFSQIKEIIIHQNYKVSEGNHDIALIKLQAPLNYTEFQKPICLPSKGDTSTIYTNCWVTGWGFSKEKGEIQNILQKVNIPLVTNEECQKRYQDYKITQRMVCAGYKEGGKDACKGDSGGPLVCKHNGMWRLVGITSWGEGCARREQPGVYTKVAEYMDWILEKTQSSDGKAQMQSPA

[9] = molecular target: T8, mouse uPA (MUPA-LMW, recombinantly produced in insect cells, 31 kDa) (mouse, UniProt P06869 157-433, limits assumed); assay: cell-based or functional assay
T8 sequence (P06869 157-433 limits assumed): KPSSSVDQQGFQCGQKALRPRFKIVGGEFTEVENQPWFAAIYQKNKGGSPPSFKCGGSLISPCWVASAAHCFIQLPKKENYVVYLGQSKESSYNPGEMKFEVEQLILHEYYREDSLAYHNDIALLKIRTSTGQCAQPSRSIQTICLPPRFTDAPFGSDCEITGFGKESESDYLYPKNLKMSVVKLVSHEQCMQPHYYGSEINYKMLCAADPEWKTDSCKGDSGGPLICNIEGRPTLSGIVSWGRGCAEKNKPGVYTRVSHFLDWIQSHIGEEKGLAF

[10] = molecular target: T9, human tPA (HTPA-TC, recombinant, 70 kDa) (human, UniProt P00750 36-562); assay: cell-based or functional assay
T9 sequence (P00750 36-562 limits assumed): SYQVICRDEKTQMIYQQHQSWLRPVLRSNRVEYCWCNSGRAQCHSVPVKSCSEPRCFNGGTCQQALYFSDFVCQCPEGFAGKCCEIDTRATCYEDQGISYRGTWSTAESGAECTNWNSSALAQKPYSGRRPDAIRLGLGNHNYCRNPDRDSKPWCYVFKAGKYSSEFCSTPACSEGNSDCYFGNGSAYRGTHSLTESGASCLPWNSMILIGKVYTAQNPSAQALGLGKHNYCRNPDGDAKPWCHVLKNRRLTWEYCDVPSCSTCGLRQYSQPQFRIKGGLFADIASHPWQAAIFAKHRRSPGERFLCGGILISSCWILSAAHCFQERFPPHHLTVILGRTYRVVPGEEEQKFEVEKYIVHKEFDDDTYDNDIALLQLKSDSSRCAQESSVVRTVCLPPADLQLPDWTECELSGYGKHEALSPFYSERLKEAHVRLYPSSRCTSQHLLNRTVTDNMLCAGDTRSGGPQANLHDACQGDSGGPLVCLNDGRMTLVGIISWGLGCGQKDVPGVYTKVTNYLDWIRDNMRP

[11] = molecular target: T1, human urokinase-type plasminogen …; assay: enzyme inhibition, Ki
[12] = molecular target: T8, mouse uPA (MUPA-LMW, recombinantly …); assay: enzyme inhibition, Ki
[13] = molecular target: T2, human factor XIa (IHFXI, from human …); assay: enzyme inhibition, Ki calculated from IC50 by the Cheng-Prusoff equation, pH 7.4, 25 °C
[14] = molecular target: T3, human thrombin (IHT, from human plasma, …); assay: as above
[15] = molecular target: T4, mouse tPA (MTPA, recombinantly produced …); assay: as above
[16] = molecular target: T1, human urokinase-type plasminogen …; assay: as above
[17] = molecular target: T5, human trypsin (HTRYP, from human …); assay: as above
[18] = molecular target: T6, human plasmin (HPLM, from human plasma, …); assay: as above
[19] = molecular target: T7, human plasma kallikrein (IHPKA, from …); assay: as above
[20] = molecular target: T8, mouse uPA (MUPA-LMW, recombinantly …); assay: as above
[21] = molecular target: T9, human tPA (HTPA-TC, recombinant, 70 kDa); assay: as above

B1: linear UK18 peptide with serine instead of cysteine in positions 2, 9 and 16 (H-ASSRYEVDSRGRGSASG-NH2) (peptide)
peptide: H-ASSRYEVDSRGRGSASG-NH2
notes: Not conjugated to TBMB; M = 1740.0 Da; also called UK18ser
Q: Which Ki [1] does the source give for B1 here?
A: 5.8 µM

Q: What about the “fold weaker inhibition than the TBMB-cyclised UK18 peptide” value [1] of the same binder?
A: ~200 fold

B2: UK18 bicyclic peptide (chemically synthesized peptide-TBMB conjugate, H-ACSRYEVDCRGRGSACG-NH2 cyclised with tris-(bromomethyl)benzene) (peptide)
peptide: H-ACSRYEVDCRGRGSACG-NH2
modifications: linker 2-9-16 via TBMB
SMILES: CC(C)[C@@H]1NC(=O)[C@H](CCC(=O)O)NC(=O)[C@H](Cc2ccc(O)cc2)NC(=O)[C@H](CCCNC(=N)N)NC(=O)[C@H](CO)NC(=O)[C@@H](NC(=O)[C@H](C)N)CSCc2cc3cc(c2)CSC[C@H](NC(=O)[C@H](CC(=O)O)NC1=O)C(=O)N[C@@H](CCCNC(=N)N)C(=O)NCC(=O)N[C@@H](CCCNC(=N)N)C(=O)NCC(=O)N[C@@H](CO)C(=O)N[C@@H](C)C(=O)N[C@H](C(=O)NCC(N)=O)CSC3
notes: Synthetic bicyclic peptide, 1903 Da after reaction with TBMB; also called clone 18; TBMB-cyclised UK18 peptide
Q: What does the source list for B2?
A: IC50 (µM), residual protease activity, substrate Boc-Phe-Ser-Arg-AMC [2]: 63 µM; IC50 (µM), residual protease activity, substrate Z-Gly-Gly-Arg-AMC [3]: 36 µM; IC50 (µM), residual protease activity, substrate Z-Gly-Gly-Arg-AMC [4]: 52.5 µM; IC50 (µM), residual protease activity, substrate Z-Gly-Gly-Arg-AMC [5]: 0.047 µM; IC50 (µM), residual protease activity, substrate Z-Gly-Gly-Arg-AMC [6]: 54.5 µM; IC50 (µM), residual protease activity, substrate H-D-Val-Leu-Lys-AMC [7]: 57.5 µM; IC50 (µM), residual protease activity, substrate Z-Phe-Arg-AMC [8]: 47.5 µM; IC50 (µM), residual protease activity, substrate Z-Gly-Gly-Arg-AMC [9]: 65.5 µM; IC50 (µM), residual protease activity, substrate Z-Gly-Gly-Arg-AMC [10]: 87.5 µM; fold better inhibition than of other serine proteases [11]: ~1000 fold; fold of Ki against the Ki of human uPA [12]: ~1400 fold; Ki [13]: 40.4 µM; Ki [14]: 23.1 µM; Ki [15]: 33.7 µM; Ki [16]: 0.03 µM; Ki [17]: 34.9 µM; Ki [18]: 36.9 µM; Ki [19]: 30.5 µM; Ki [20]: 42 µM; Ki [21]: 56.1 µM
